According to IntAct's records for PubMed 16615911:

B1: E3 ubiquitin-protein ligase SIAH1A (Mus musculus), P61092 (parent)
chain: MSRQTATALPTGTSKCPPSQRVPALTGTTASNNDLASLFECPVCFDYVLPPILQCQSGHLVCSNCRPKLTCCPTCRGPLGSIRNLAMEKVANSVLFPCKYASSGCEITLPHTEKAEHEELCEFRPYSCPCPGASCKWQGSLDAVMPHLMHQHKSITTLQGEDIVFLATDINLPGAVDWVMMQSCFGFHFMLVLEKQEKYDGHQQFFAIVQLIGTRKQAENFAYRLELNGHRRRLTWEATPRSIHEGIATAIMNSDCLVFDTSIAQLFAENGNLGINVTISMC
partner: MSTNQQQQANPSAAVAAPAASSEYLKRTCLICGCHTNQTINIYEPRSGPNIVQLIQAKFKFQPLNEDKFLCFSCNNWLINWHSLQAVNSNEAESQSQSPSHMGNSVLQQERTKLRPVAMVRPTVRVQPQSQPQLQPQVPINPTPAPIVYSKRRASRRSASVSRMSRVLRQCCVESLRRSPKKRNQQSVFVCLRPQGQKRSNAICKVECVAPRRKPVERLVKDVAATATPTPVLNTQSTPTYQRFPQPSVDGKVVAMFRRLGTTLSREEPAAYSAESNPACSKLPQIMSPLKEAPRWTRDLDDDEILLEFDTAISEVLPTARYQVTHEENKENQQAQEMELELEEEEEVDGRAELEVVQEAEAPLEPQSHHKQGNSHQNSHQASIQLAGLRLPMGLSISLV

Variants of: B1
Conditions: with phyl_drome phyl

Row | effect of a mutation on the interaction | Variant
1 | disrupting interaction | MSRQTATALPTGTSKCPPSQRVPALTGTTASNNDLASLFECPVCFDYVLPPILQCQSGHLVCSNCRPKLTCCPTCRGPLGSIRNLAMEKVANSVLFPCKYASSGCEITLPHTEKAEHEELCEFRPYSCPCPGASCKWQGSLDAVMPHLMHQHKSITTLQGEDIVFLATDINLPGAVDWVKMQSCFGFHFMLVLEKQEKYDGHQQFFAIVQLIGTRKQAENFAYRLELNGHRRRLTWEATPRSIHEGIATAIMNSDCLVFDTSIAQLFAENGNLGINVTISMC [M180K]
2 | disrupting interaction strength | MSRQTATALPTGTSKCPPSQRVPALTGTTASNNDLASLFECPVCFDYVLPPILQCQSGHLVCSNCRPKLTCCPTCRGPLGSIRNLAMEKVANSVLFPCKYASSGCEITLPHTEKAEHEELCEFRPYSCPCPGASCKWQGSLDAVMPHLMHQHKSITTDQGEDIVFLATDINLPGAVDWVMMQSCFGFHFMLVLEKQEKYDGHQQFFAIVQLIGTRKQAENFAYRLELNGHRRRLTWEATPRSIHEGIATAIMNSDCLVFDTSIAQLFAENGNLGINVTISMC [L158D]
